Assay results published in PMC10200060, “Inhibition of DAMP actions in the tumoral microenvironment using lactoferrin-glycyrrhizin conjugate for glioblastoma therapy” (Biomaterials Research, 2023).

T1: human recombinant HMGB1 protein (Homo sapiens, UniProt P09429)
T1 construct: purchased Abcam
T1 sequence (P09429 1-215): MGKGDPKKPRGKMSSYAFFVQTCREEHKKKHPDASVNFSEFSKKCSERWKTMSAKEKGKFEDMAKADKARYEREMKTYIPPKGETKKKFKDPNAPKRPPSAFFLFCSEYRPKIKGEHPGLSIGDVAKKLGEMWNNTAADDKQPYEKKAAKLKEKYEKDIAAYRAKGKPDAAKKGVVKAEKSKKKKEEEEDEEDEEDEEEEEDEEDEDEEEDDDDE


What was measured:
[1] = biological target: T1, human recombinant HMGB1 protein; experiment: SPR binding affinity against HMGB1; settings: SPR, HMGB1 immobilized; for Ka, association rate constant / Kd, dissociation rate constant: PBS pH 7.4, room temperature
Procedure: To confirm the binding affinity of Lf-GL to HMGB1, Surface Plasmon Resonance (SPR) was conducted at WoojungBSC (Korea). The Reichert SR7500DC system (Reichert technologies, NA, USA) and Scrubber2 software (Biologic software, FRA) were used, and a CMDH chip (Cat #: 13,206,066, Reichert technologies) was used for immobilization of the human recombinant HMGB1 protein (Abcam). HMGB1 protein was used as a ligand, and the analytes were HMGB1 antibody (Abcam), GL, Lf and Lf-GL conjugate. The immobilization buffer was S.A. (10 × 10^–3 M, pH 4.5), and the running buffer was PBS (pH 7.4). The flow rate of the analyte was 30 μL min^−1. The association and dissociation time were 3 min each, and measurements were conducted at room temperature. Results are expressed in response units (RU) over time.
Fig. S5. Binding affinity against HMGB1. Surface Plasmon Resonance (SPR) was conducted at WoojungBSC (Korea). The Reichert SR7500DC system (Reichert technologies, NA, USA) and Scrubber2 software(Biologic software, FRA) were used and the CMDH chip (Cat #: 13206066, Reichert technologies) was used for immobilization of the human recombinant HMGB1 protein (Abcam). HMGB1 protein was used as ligand and analytes were HMGB1 antibody (Abcam), GL, Lf and Lf-GL conjugate. Immobilization buffer was 10 mM S.A. (pH 4.5) and running buffer was 1× PBS. The flow rate of the analyte was 30 μL min^-1. The association and dissociation time were 3 min each and conducted at room temperature. Results are expressed in response units (RU) over time.

U87MG spheroid = experiment: GBM spheroid growth inhibition; format: cell-based, human; settings: GL equivalent 50 µM, day 6 (control 294%)
Procedure: Fig. S8. GBM spheroid growth inhibition of Lf-GL. To form U87MG spheroid, cells were seeded at density of 1X10^5 cells in concave mold (StemFIT 3D; MICROFIT, Korea). After spheroids were formed, they were transferred to 24-well plate coated with 2% agarose gel. The constructed spheroids were treated with conditioned medium at 2 days interval after a washing step with PBS. (a) Morphology of U87MG spheroid treated with Lf-GL of GL equivalent concentration of 50 µM on day 0, 2, 4 and 6, respectively. Scale bar: 200 µm (b) GBM spheroids time-related volume after treated with Lf-GL of GL equivalent concentration of 50 µM. Data were expressed as mean ± S.E.M (n=9). **P <0.01 versus Control.

KD, equilibrium dissociation constant (KD = Kd Ka^−1) [1] | Ka, association rate constant [1] | Kd, dissociation rate constant [1] | Molecule | Spheroid volume increase at day 6 compared to day 0 (U87MG spheroid)
595 ± 5 nM | (2.66±0.02)·10^3 M^-1s^-1 | 0.001584 ± 8e-06 s⁻¹ | Lf-GL (1:4): lactoferrin-glycyrrhizin conjugate, ratio 1:4 (conjugate, UniProt P24627 20-708, looked up, glycyrrhizin conjugate 1:4) Lactotransferrin: APRKNVRWCTISQPEWFKCRRWQWRMKKLGAPSITCVRRAFALECIRAIAEKKADAVTLDGGMVFEAGRDPYKLRPVAAEIYGTKESPQTHYYAVAVVKKGSNFQLDQLQGRKSCHTGLGRSAGWIIPMGILRPYLSWTESLEPLQGAVAKFFSASCVPCIDRQAYPNLCQLCKGEGENQCACSSREPYFGYSGAFKCLQDGAGDVAFVKETTVFENLPEKADRDQYELLCLNNSRAPVDAFKECHLAQVPSHAVVARSVDGKEDLIWKLLSKAQEKFGKNKSRSFQLFGSPPGQRDLLFKDSALGFLRIPSKVDSALYLGSRYLTTLKNLRETAEEVKARYTRVVWCAVGPEEQKKCQQWSQQSGQNVTCATASTTDDCIVLVLKGEADALNLDGGYIYTAGKCGLVPVLAENRKSSKHSSLDCVLRPTEGYLAVAVVKKANEGLTWNSLKDKKSCHTAVDRTAGWNIPMGLIVNQTGSCAFDEFFSQSCAPGADPKSRLCALCAGDDQGLDKCVPNSKEKYYGYTGAFRCLAEDVGDVAFVKNDTVWENTNGESTADWAKNLNREDFRLLCLDGTRKPVTEAQSCHLAVAPNHAVVSRSDRAAHVKQVLLHQQALFGKNGKNCPDKFCLFKSETKNLLFNDNTECLAKLGGRPTYEEYLGTEYVTAIANLKKCSTSPLLEACAFLTR | 185%
32.3 ± 0.2 nM | (2.99±0.02)·10^4 M^-1s^-1 | (9.65±0.04)·10^-4 M^-1s^-1 | Lf-GL (1:15): lactoferrin-glycyrrhizin conjugate, ratio 1:15 (conjugate, UniProt P24627 20-708, looked up, glycyrrhizin conjugate 1:15) Lactotransferrin: APRKNVRWCTISQPEWFKCRRWQWRMKKLGAPSITCVRRAFALECIRAIAEKKADAVTLDGGMVFEAGRDPYKLRPVAAEIYGTKESPQTHYYAVAVVKKGSNFQLDQLQGRKSCHTGLGRSAGWIIPMGILRPYLSWTESLEPLQGAVAKFFSASCVPCIDRQAYPNLCQLCKGEGENQCACSSREPYFGYSGAFKCLQDGAGDVAFVKETTVFENLPEKADRDQYELLCLNNSRAPVDAFKECHLAQVPSHAVVARSVDGKEDLIWKLLSKAQEKFGKNKSRSFQLFGSPPGQRDLLFKDSALGFLRIPSKVDSALYLGSRYLTTLKNLRETAEEVKARYTRVVWCAVGPEEQKKCQQWSQQSGQNVTCATASTTDDCIVLVLKGEADALNLDGGYIYTAGKCGLVPVLAENRKSSKHSSLDCVLRPTEGYLAVAVVKKANEGLTWNSLKDKKSCHTAVDRTAGWNIPMGLIVNQTGSCAFDEFFSQSCAPGADPKSRLCALCAGDDQGLDKCVPNSKEKYYGYTGAFRCLAEDVGDVAFVKNDTVWENTNGESTADWAKNLNREDFRLLCLDGTRKPVTEAQSCHLAVAPNHAVVSRSDRAAHVKQVLLHQQALFGKNGKNCPDKFCLFKSETKNLLFNDNTECLAKLGGRPTYEEYLGTEYVTAIANLKKCSTSPLLEACAFLTR | 179%
